Laboratory results from patent US20240082402A1 (ELPIS BIOPHARMACEUTICALS, published 2024).
Each block holds one binder with its values, some of them ahead of it.

Legend:
[1] = target: HIS tagged human CD22 recombinant protein (human) (UniProt P20273); assay: SPR Biacore T200, Fc fusion captured on Protein A chip, His-tagged CD22 as analyte
[2] = target: HIS tagged human CD19 recombinant protein (human) (UniProt P15391); assay: ELISA, His-tagged CD19 coated at 2 µg/mL, anti-hFc HRP detection
[3] = target: HIS tagged human CD22 recombinant protein (human) (UniProt P20273); assay: ELISA, His-tagged CD22 coated at 2 µg/mL, anti-hFc HRP detection
[4] = target: HIS tagged human CD19 recombinant protein (human) (UniProt P15391); assay: SPR Biacore T200, Fc fusion captured on Protein A chip, His-tagged CD19 as analyte
[5] = target: T1, HIS tagged human CD19 recombinant protein (human, UniProt P15391 20-291, limits assumed); assay: ELISA, His-tagged CD19 coated at 2 µg/mL, anti-hFc HRP detection
T1 construct: also called rhCD19; human CD19-HIS tagged protein; not shown: His tag
T1 sequence (looked up): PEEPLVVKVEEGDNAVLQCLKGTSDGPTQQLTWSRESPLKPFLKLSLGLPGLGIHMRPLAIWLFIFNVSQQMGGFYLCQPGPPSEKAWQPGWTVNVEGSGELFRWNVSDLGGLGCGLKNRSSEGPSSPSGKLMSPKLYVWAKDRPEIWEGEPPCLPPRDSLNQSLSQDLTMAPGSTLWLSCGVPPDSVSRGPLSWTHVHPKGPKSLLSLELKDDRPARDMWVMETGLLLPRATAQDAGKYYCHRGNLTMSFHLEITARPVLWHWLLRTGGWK
Description: (§1) Briefly, 384 well plate was immobilized with HIS tagged human CD19 or CD22 recombinant protein at final concentration of 2 μg/mL in 1×PBS in total volume of 25μL per well. The plate was incubated overnight at 4° C. followed by blocking with 80μL of superblock per well for 1 hour. […] CD19 or CD22 binding was detected by adding 25 μL of anti-hFc HRP diluted at 1:5000 in 1×PBST. In between each step, the plate was washed 3 times with 1×PBST in a plate washer. The plate was then developed with 20 μL of TMB substrate for 5 mins and stopped by adding 20 μL of 2 N sulfuric acid. The plate was read at OD450 nm (BIOTEK plate reader) and data plotted using GraphPad Prism® 8.1 software. […]

[6] = target: T1, HIS tagged human CD19 recombinant …; assay: SPR Biacore T200, Fc fusion captured on Protein A chip, His-tagged CD19 as analyte
Description: (§2) The assay was run using Biacore™ T200 control software version 2.0. For each cycle, 1 μg/mL of Fc-fusion protein was captured for 60 seconds at flow rate of 10 ul/min on flow cell 2 in 1×HBSP buffer on Protein A sensor chip. 2-fold serial human CD19 or CD22-HIS tagged protein was injected onto both reference flow cell 1 and Fc fusion protein captured flow cell 2 for 150 seconds at flow rate of 30 μl/mins followed by wash for 300 seconds. The flow cells were then regenerated with Glycine pH2 for 60 seconds at flow rate of 30 ul/mins. 8 concentration points from 100-0 nM was assayed per Fc fusion in a 96 well plate. The kinetics of Anti-CD19, CD22, CD22-CD19 binding to CD19 or CD22 protein was analyzed using Biacore™ T200 evaluation software version 3.0. The specific binding response unit was derived from subtraction of binding to reference flow cell-1 from Fc fusion protein captured flow cell-2.

[7] = target: T2, HIS tagged human CD22 recombinant protein (human, UniProt P20273 20-687, limits assumed); assay: SPR Biacore T200, Fc fusion captured on Protein A chip, His-tagged CD22 as analyte
T2 construct: also called rhCD22; human CD22-HIS tagged protein; not shown: His tag
Description: as §2

[8] = target: T2, HIS tagged human CD22 recombinant …; assay: ELISA, His-tagged CD22 coated at 2 µg/mL, anti-hFc HRP detection
Description: as §1

[9] = target: T3, endogenous CD19 on Raji / Nalm6 cells (also on CD22 knock-out Raji cells) (human, UniProt P15391 20-556); assay: FACS, scFv-Fc fusion on CD22 knock-out Raji cells (which keep CD19)
T3 construct: whole, on cells
T3 sequence (looked up): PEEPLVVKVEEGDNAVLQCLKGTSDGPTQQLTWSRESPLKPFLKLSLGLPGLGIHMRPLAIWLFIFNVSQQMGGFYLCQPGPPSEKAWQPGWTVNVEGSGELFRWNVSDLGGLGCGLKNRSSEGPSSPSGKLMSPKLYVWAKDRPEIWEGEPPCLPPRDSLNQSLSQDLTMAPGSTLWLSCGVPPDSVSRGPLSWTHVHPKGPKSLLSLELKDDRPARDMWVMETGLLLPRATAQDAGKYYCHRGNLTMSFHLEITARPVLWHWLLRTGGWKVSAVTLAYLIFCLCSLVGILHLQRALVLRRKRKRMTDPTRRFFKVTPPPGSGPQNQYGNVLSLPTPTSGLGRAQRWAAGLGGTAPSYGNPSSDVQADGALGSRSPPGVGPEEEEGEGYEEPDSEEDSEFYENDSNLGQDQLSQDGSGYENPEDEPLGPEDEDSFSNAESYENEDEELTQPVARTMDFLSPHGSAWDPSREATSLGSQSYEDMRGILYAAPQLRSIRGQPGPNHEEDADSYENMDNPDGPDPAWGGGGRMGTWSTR

[10] = target: T1, HIS tagged human CD19 recombinant …; assay: ELISA, plate coated with His-tagged human CD19 at 2 ug/mL, anti-hFc HRP detection
Description: as §1

[11] = target: T4, full-length human CD19 on transfected K562 cells (human, UniProt P15391 20-556); assay: FACS, scFv at 200 nM on CD19 K562 cells, Alexa Fluor 647 anti-His detection, % positive cells
T4 construct: whole, on cells; K562 clone transfected with pCMV6-Entry; also called CD19 K562; CD19/K562; not shown: flag or Myc tag at the C-terminus
T4 sequence (looked up): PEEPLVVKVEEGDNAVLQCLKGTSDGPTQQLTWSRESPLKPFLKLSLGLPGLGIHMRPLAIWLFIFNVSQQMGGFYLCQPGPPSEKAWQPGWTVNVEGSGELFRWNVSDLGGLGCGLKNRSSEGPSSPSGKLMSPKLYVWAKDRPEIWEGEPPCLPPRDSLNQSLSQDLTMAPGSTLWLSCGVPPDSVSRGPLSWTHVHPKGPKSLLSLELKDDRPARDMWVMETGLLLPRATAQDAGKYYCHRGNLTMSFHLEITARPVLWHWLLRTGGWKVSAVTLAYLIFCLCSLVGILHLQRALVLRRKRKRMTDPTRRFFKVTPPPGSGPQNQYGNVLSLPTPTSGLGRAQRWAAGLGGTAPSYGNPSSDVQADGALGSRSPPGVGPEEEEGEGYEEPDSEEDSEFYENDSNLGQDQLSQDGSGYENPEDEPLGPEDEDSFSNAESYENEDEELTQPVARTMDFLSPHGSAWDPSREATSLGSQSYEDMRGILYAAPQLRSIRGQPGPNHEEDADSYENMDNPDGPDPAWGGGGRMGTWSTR
Description: Cells were spun down at 1300 rpm for 5 minutes at 4° C. to remove unbound antibodies. Cells were then washed once with 200 iaL of PBS per well. […] Samples were then spun down at 1300 rpm for 5 minutes at 4° C. and washed twice with 200uL of 1×PBS per well. The resultant samples were reconstituted in 200 uL of 1×PBS and read on Attune™ NxT Flow Cytometer.

[12] = target: T5, endogenous CD22 on Raji / Nalm6 cells (also on CD19 knock-out Raji cells) (human, UniProt P20273 20-847); assay: FACS, scFv at 200 nM on Raji and Nalm6 cells, Alexa Fluor 647 anti-His detection, % positive cells
T5 construct: whole, on cells

- Kd [7]: 1440 pM
- koff [7]: 0.000177 s⁻¹
- kon [7]: 122000 M⁻¹ s⁻¹
- EC50 [8]: 43 pM
- binding result [9]: no binding
- binding result [10]: no binding (tested: 25 nM)
B3: anti-CD22 scFv-Fc (Fc fusion, not shown: a dimerising Fc or GST)
chain: EVQLVQSGAEVKKPGASVKVSCKASGYTFTSYGISWVRQAPGQGLEWMGWISAYNGNTNYAQKLQGRVTMTTDTSTSTAYMELRSLRSDDTAVYYCARDYGDPSGDDYWGQGTLVTVSSGGGGSGGGGSGGGGSEIVLTQSPATLSVSPGEGVTLSCRASQSVSSNLAWYQQRPGQAPRLLIYGASIKATDVPDRFSGGGSGTDFTLSISNLQSEDFAVYYCQQYHTWPPVTFGGGTKVEIK
notes: also called Anti-CD22-Fc

- binding result [11]: no binding (tested: 200 nM)
- binding result [12]: binds
B4: EPC-001-2 (scFv)
scFv (VH-linker-VL): QVQLVQSGAEVKRPGASVKVSCKASGYTFTSYGISWVRQAPGQGLEWMGWISAYNGNTNYAQKLQGRVTMTTDTSTSTAYMELRSLRSDDTAVYYCARDPGIAVAGTVDYWGQGTLVTVSSGGGGSGGGGSGGGGSEIVMTQSPATLSVSPGEGVTLSCRASQSVSSNLAWYQQRPGQAPRLLIYGASIKATDVPDRFSGGGSGTDFTLSISNVQSEDFAVYYCQQYHTWTPVTFGGGTKVEIK
notes: also called anti-CD22 monospecific scFv; parental anti-CD22 scFv

More lines, now with the values behind:

B1: Anti-CD22scFv-CD19scFv-Fc (bispecific antibody, part only; not given: Fc and inter-scFv linker, not shown: a dimerising Fc or GST)
chain, part: EVQLVQSGAEVKKPGASVKVSCKASGYTFTSYGISWVRQAPGQGLEWMGWISAYNGNTNYAQKLQGRVTMTTDTSTSTAYMELRSLRSDDTAVYYCARDYGDPSGDDYWGQGTLVTVSSGGGGSGGGGSGGGGSEIVLTQSPATLSVSPGEGVTLSCRASQSVSSNLAWYQQRPGQAPRLLIYGASIKATDVPDRFSGGGSGTDFTLSISNLQSEDFAVYYCQQYHTWPPVTFGGGTKVEIKQVQLQQWGAGLLKPSETLSLTCAVYGGSFSGYYWTWIRQPPGKGLEWIGEINHGGSSNYNPSLKSRVTISVDTSKKQFSLNLNSVTAADTAVYYCARGLGYRSGWYEVENAFDIWGQGTMVTVSSGGGGSGGGGSGGGGSQPVLTQPPSVSVAPGQTARITCGGNKIESRSVHWYQQKPGQAPVLVVYDDGARPSGIPERLSGSNSGDTATLTISRVEPGDEADYYCQVWDGSSVIFGGGTKLTVL
- Kd [1]: 3370 pM
- koff [1]: 0.000266 s⁻¹
- kon [1]: 79000 M⁻¹ s⁻¹
- EC50 [2]: 52 pM
- EC50 [3]: 189 pM
- Kd [4]: 4370 pM
- koff [4]: 0.00025 s⁻¹
- kon [4]: 57200 M⁻¹ s⁻¹

B2: anti-CD19 scFv-Fc (Fc fusion, not shown: a dimerising Fc or GST)
chain: QVQLQQWGAGLLKPSETLSLTCAVYGGSFSGYYWTWIRQPPGKGLEWIGEINHGGSSNYNPSLKSRVTISVDTSKKQFSLNLNSVTAADTAVYYCARGLGYRSGWYEVENAFDIWGQGTMVTVSSGGGGSGGGGSGGGGSQPVLTQPPSVSVAPGQTARITCGGNKIESRSVHWYQQKPGQAPVLVVYDDGARPSGIPERLSGSNSGDTATLTISRVEPGDEADYYCQVWDGSSVIFGGGTKLTVL
notes: also called anti-CD19-Fc
- EC50 [5]: 9.4 pM
- Kd [6]: 3750 pM
- koff [6]: 0.000223 s⁻¹
- kon [6]: 59400 M⁻¹ s⁻¹
